Measurements reported in the RNAGym collection of RNA variant scans (doi:10.7554/elife.90254).

B1: OR4K15 (parent)
chain: GUUAACGGUCAUAGGCCAUGGAAACUAGGAGCACCAUUUCGCUGCCAGUGAAGAAAUGAACAAAGAAAAUCUGGGCCAGGCAGGCAUCAAAAGAAAUAGUCUUGCGCUCAACCAGAAAGUCUGUAAUCAUUUUAAGGGUA

Variants of: B1
Experiment: self-cleavage, relative activity (ratio to wild type); higher = more cleavage; in vitro, sequencing; the parent is a self-cleaving ribozyme

In order of rising self-cleavage:
1. GUUAACGGUCAUAGGCCAUGGAAACUAGGAGCACCAUUUCGCUGCCAGUGAAGAAAUGAACAAAGAAAAUCUGGGCCAGGCAGGCAUCAAAAGAAAUAGUCUUGCGCACAACCAGAAAGUCUGUGAUCAUUUUAAGGGUA [U108A A125G]  0
2. GUUAACGGUCAUAGGCCAUGGAAACUAGGAGCACCAUUUCGCUGCCAGUGAAGAAAUGUACAAAGAAAAUCUGGGCCAGGCAGGCAUCAAAAGAAAUAGUCUUGCGCCCAACCAGAAAGUCUGUAAUCAUUUUAAGGGUA [A59U U108C]  0.02
3. GUUAACGGUCAUAGGCCAUGGAAACUAGGAGCACCAUUUCGCUGCCAGUGAAGAAAUGAACAAAGAAAAUCUGGGCCAGGCAGGCAUCAAAAGAAAAAGUCUUGCGCUCAGCCAGAAAGUCUGUAAUCAUUUUAAGGGUA [U97A A111G]  0.03
4. GUUAACGGUCAUAGGCCAUGGAAACUAGGAGCACCAUUUCGCUGCCAGUGAAGAAAUGAACAAAGAAAAUCUAGGCCAGGCAGGCAUCAAAAGAAAUAGUCUUGCGCUCAACCAGAAUGUCUGUAAUCAUUUUAAGGGUA [G73A A118U]  0.04
5. GUUAACGGUCAUAGGCCAUGGAAACUAGGAGCACCAUUUCGCUGCCAGUGAAGAGAUGAACAAAGAAAAUCUGGGCCAGGCAGGCAUCAAAAGAAAUAGUCUUGCGUUCAACCAGAAAGUCUGUAAUCAUUUUAAGGGUA [A55G C107U]  0.05
6. GUUAACGGUCAUAGGCCAUGGAAACUAGGAGCACCAUUUCGCUGCCAGUGAAGAAAUGAACAAAGAAAAUCUGGGCCAAGCAGGCAUCAAAAGAAAUAGUCUUGCGCUCAACCAGAAAGUCUGUAAUCAUUUUGAGGGUA [G79A A134G]  0.09
7. GUUAACGGUCAUAGGCCAUGGAAACUAGGAGCACCAUUUCGCUGCCAGUGAAGAAAUGAACAAAGAAAAUCUGGGCCUGGCAGGCAUCAAAAGAAAUAGUCUUGCGCUCAACCAGAAAGUCCGUAAUCAUUUUAAGGGUA [A78U U122C]  0.14
8. GUUAACGGUCAUAGGCCAUGGAAACUAGGAGCACCAUUUCGCUGCCAGUGAAGAAAUGUACAAAGAAAAUCUGGGCCAAGCAGGCAUCAAAAGAAAUAGUCUUGCGCUCAACCAGAAAGUCUGUAAUCAUUUUAAGGGUA [A59U G79A]  0.14
9. GUUAACGGUCAUAGGCCAUGGAAACUAGGAGCACCAUUUCGCUGCCAGUGAAGAAAUGAACAAAGAAAAUCUGGGCCAGGCAGGCAUCAAAAGAAAUAGUCAUGCGCUCAACCAGCAAGUCUGUAAUCAUUUUAAGGGUA [U102A A116C]  0.21
10. GUUAACGGUCAUAGGCCAUGGAAACUAGGAGCACCAUUUCGCUGCCAGUGAAGAAAUGAACAAAGAAAAUCUGGGCCAGGCAGGCAUCAAAAGAAAUAGUCUUGCGCUCAACCAGAAAGUCUGUACCCAUUUUAAGGGUA [A126C U127C]  0.21
11. GUUAACGGUCAUAGGCCAUGGAAACUAGGAGCACCAUUUCGCUGCCAGUGAAGAAAUGAACAAAGAAAAUCUGGGCCAGGCAGGCAUCAGAAGAAAUGGUCUUGCGCUCAACCAGAAAGUCUGUAAUCAUUUUAAGGGUA [A90G A98G]  0.22
12. GUUAACGGUCAUAGGCCAUGGAAACUAGGAGCACCAUUUCGCUGCCAGUGAAGAAAUGAACAAAGAAAAUCAGGGCCAGGCAGGCAUCAAAAGAAAUAGUCUUGCGCUCAACCAGAAAGUCUGUAAUCAUUUUAAGGGAA [U72A U139A]  0.24
13. GUUAACGGUCAUAGGCCAUGGGAACUAGGAGCACCAUUUCGCUGCCAGUGAAGAAAUGAACAAAGAAAAUCUGGGCCAGGCCGGCAUCAAAAGAAAUAGUCUUGCGCUCAACCAGAAAGUCUGUAAUCAUUUUAAGGGUA [A22G A82C]  0.25
14. GUUAACGGUCAUAGGCCAUGGAACCUAGGAGCACCAUUUCGCUGCCAGUGAAGAAAUGAACAAAGAAAAUCAGGGCCAGGCAGGCAUCAAAAGAAAUAGUCUUGCGCUCAACCAGAAAGUCUGUAAUCAUUUUAAGGGUA [A24C U72A]  0.28
15. GUUAACGGUCAUAGGCCAUGGAAACUAGGAGCACCAUUUCGCUGCCAGUGAAGAAAUGAACAAAGAAAAUCCGGGCCAGGCAGGCAUCAAAAGAAAUAGUCUUGCGCUCAACCAGAAAGUCUGUAAUCAUUUUAUGGGUA [U72C A135U]  0.28
16. GUUAACGGUCAUAGGCCAUGGAAACUAGGAGCACCAUUUCGCUGCCAGUGAAGAAAUGAACAAAGAAAAUCUGGGCCAGGCAGCCAUCAAAAGGAAUAGUCUUGCGCUCAACCAGAAAGUCUGUAAUCAUUUUAAGGGUA [G84C A94G]  0.32
17. GUUAACGGUCAUAGGCCAUGGAAACUAGGAGCACCAUUUCGCUGCCAGUGAAGAAAUGAACAAAGAAAAGCUGGGCCAGGCAGGCAUCAAAAGAAAUAGUCCUGCGCUCAACCAGAAAGUCUGUAAUCAUUUUAAGGGUA [U70G U102C]  0.64
18. GUUAACGGUCAUAGGCCAUGGGAACUAGGAGCACCAUUUCGCUGCCAGUGAAGAAAUGAACAAAGAAAAUCUGGGCCAGGCAGGCAUCAAAAGAAAUAGUCUUGCGCUCAACCAGAAAGUCUGUAAUCAUUUCAAGGGUA [A22G U133C]  0.65
19. GUUAACGGUCAUAGGCCAUGGAAACUAGGAGCACCAUUUCGCUGCCAGUGAAGAAAUGAACAAAGAUAAUCUGGGCCAGGCAGGCAUCAAAAGAAAUAGUCUUGCGCUCAACCGGAAAGUCUGUAAUCAUUUUAAGGGUA [A67U A114G]  0.66
20. GUUAACGGUCAUAGGCCAUGGAAACUAGGAGCACCAUUUCGCUGCCAGAGAAGAAAUGAACAAAGAAAAUCUGGGCCAGGCAGGCAUCAAAAGAAAUAGUCUUGCGCUCAACCAGAAAGUCUGUGAUCAUUUUAAGGGUA [U49A A125G]  0.82
21. GUUAACGGUCAUAGGCCAUGGAAACUAGGAGCACCAUUUCGCUGCCAGUGAAGAAAUGAACAAAGAAAAUCUGGGCCAGGCAAGCAUCAAAAGAAAUAGUCUUGCGCUCAACCAGAAAGUCUGUAAUCAUAUUAAGGGUA [G83A U131A]  0.94
22. GUUAACGGUCAUAGGCCAUGGAAACUAGGAGCACCAUUUCGCUGCCAGUGAAGAAAUGAACAAAGAACAUCUGGGCCAGGCAGGCAUCAAAAGAAAUAGUCUUGCGCUCAACCAGAAAGUCUGUAAUCAAUUUAAGGGUA [A68C U130A]  0.98
23. GUUAACGGUCAUAGGCCAUGGAAACUAGGAGCACCAUUUCGCAGCCAGUGAAGAAAUGAACAAAGAAAAUCUGGGCCAGGCAGGCAUCAAAAGAAAUAGUCUUGCGCUCAACCAGAUAGUCUGUAAUCAUUUUAAGGGUA [U43A A117U]  1.18
24. GUUAACGGUCAUAGGCCAUGGAAACUAGGAGCACCAUUUCGCUGCCAGCGAAGGAAUGAACAAAGAAAAUCUGGGCCAGGCAGGCAUCAAAAGAAAUAGUCUUGCGCUCAACCAGAAAGUCUGUAAUCAUUUUAAGGGUA [U49C A54G]  1.19
25. GUUAACGGUCAUAGGCCAUGGAAACUAGGAGCACCAUUUCGCUGCCAGUGGAGAAAUGAACAAAGAAAAUCUGGGCCAGGCAGGCAUCAAAAGGAAUAGUCUUGCGCUCAACCAGAAAGUCUGUAAUCAUUUUAAGGGUA [A51G A94G]  1.2
26. GAUAACGGUCAUAGGCCAUGGAAACUAGGAGCACCAUUUCGCUGCCAGUGAAGAAAUGAACAAAGAAAAUCUGGGCCAGGCAGGCAUCAAAAGAAAUAGUCUUGCGCUCAACCAGAAAGUCUGUAAUCAUUCUAAGGGUA [U2A U132C]  1.21
27. GUUAACGGUCAUAGGCCAUGGAAACUGGGAGCCCCAUUUCGCUGCCAGUGAAGAAAUGAACAAAGAAAAUCUGGGCCAGGCAGGCAUCAAAAGAAAUAGUCUUGCGCUCAACCAGAAAGUCUGUAAUCAUUUUAAGGGUA [A27G A33C]  1.32
28. GUUAACGGUCAUAGGCCAUGGAAACUAGGAGCACCAUUUCGCCGCCAGUGUAGAAAUGAACAAAGAAAAUCUGGGCCAGGCAGGCAUCAAAAGAAAUAGUCUUGCGCUCAACCAGAAAGUCUGUAAUCAUUUUAAGGGUA [U43C A51U]  1.35
29. GCUAACGGUCAUAGGCCAUGGAAACUAGGAGCACCAUUUCGCUGCCAGUGAAGAAAUGAACAAAGAAAAUCUGGGCCAGGCAGACAUCAAAAGAAAUAGUCUUGCGCUCAACCAGAAAGUCUGUAAUCAUUUUAAGGGUA [U2C G84A]  1.46
30. GUUAACGGUCAUAGGCCAUGGAAACUAGGAGCACCAUUUCGCUGCCAGUGAAGGAAUGAACAAAGAAAAUCUGGGCCAGGCAGGCAUCAUAAGAAAUAGUCUUGCGCUCAACCAGAAAGUCUGUAAUCAUUUUAAGGGUA [A54G A90U]  1.57
31. AUUAACGGUCAUAGGCCGUGGAAACUAGGAGCACCAUUUCGCUGCCAGUGAAGAAAUGAACAAAGAAAAUCUGGGCCAGGCAGGCAUCAAAAGAAAUAGUCUUGCGCUCAACCAGAAAGUCUGUAAUCAUUUUAAGGGUA [G1A A18G]  1.58
32. GUUAACGGUCAUAGGCCACGGAAACUAGGAGCACCAUUUCGCUGCCAGUGAAGAAAUGAACAAAGAAAAUCUGGGCCAGGCAGGCAUCAAAAGAAAUAGUCUUGCGCUCAACCAGAGAGUCUGUAAUCAUUUUAAGGGUA [U19C A117G]  1.58
33. GUUAACGGUCAUAGGCCAUGGAAACUAGGAGCACCAUUUCGCUGCCAGUGAAGAAAUGAACAAAGAAAAUCUGGGCCAGGCAGGCAUCAAAAGAAAUAGUCUUGCGCUCAACCAGAAAGUCUGUAAUCGUUUUAAGUGUA [A129G G137U]  1.7
34. GUUAACGGUCAUAGGCCAUGGAAACAAGGAGCACCAUUUCGCUGCCAGUGAAGAAAUGAACGAAGAAAAUCUGGGCCAGGCAGGCAUCAAAAGAAAUAGUCUUGCGCUCAACCAGAAAGUCUGUAAUCAUUUUAAGGGUA [U26A A62G]  1.75
35. GUUAACGGUCACAGGCCAUGGAAACUAGGAGCACCAUUUCGCUGCCAGUGAAGAAAUGAACAAAGAAAAUCUGGGCCAGGCAGGCAUCAAAAGUAAUAGUCUUGCGCUCAACCAGAAAGUCUGUAAUCAUUUUAAGGGUA [U12C A94U]  1.8
36. GUUAACGGCCAUAGGCCAUGGAAACUAGGAGCACCAUUUCGCUGCCAGUGAAGAAAUGAACAAAGAGAAUCUGGGCCAGGCAGGCAUCAAAAGAAAUAGUCUUGCGCUCAACCAGAAAGUCUGUAAUCAUUUUAAGGGUA [U9C A67G]  1.85
37. GUUAACGGUCAUAGGCCAUGGAAACUAGGAGCACCUUUUCGCUGCCAGUGAAGAAAUGAACAAAGAAAAUCUGGGCCAGGCAGGCAUCAAAAGAAAUAGUCUUGCGCUCAACCAGAAAGUCUGUAAUCAUCUUAAGGGUA [A36U U131C]  1.87
38. GUUAACGGUCAUAGGCCAUGGAAACUAGGAGCACCAUUUCGCUGCCAGUGAAGAAAUGAACAGAGAAAAUCUGGGCCAGGCAGGCAUCAAAAGAAAUAGUCUUGCGCUCAACCAGAAAGUCUGUAAUCAGUUUAAGGGUA [A63G U130G]  1.92
39. GUUAACGGUCAUAGGCCAUGGAAACUAGGAGCACCCUUUCGCUGCCAGUGAAGAAAUGAACAAAGAAAAUCUGGGCCAGGCAGGCAUCAAAAGGAAUAGUCUUGCGCUCAACCAGAAAGUCUGUAAUCAUUUUAAGGGUA [A36C A94G]  1.94
40. GUUAACGGUCAUAGGCCAUGGAAACUAGGAGCACCAUUUCGCUGCCAGUGAAGAAAUGAACAAAGAAAAUCUGGGCCAGGCAGGCAUCAAAAGAAAUAGUCCUGCGCUCAACCAGAAAGUCUGUAAUCAUUCUAAGGGUA [U102C U132C]  2.04
41. GUUAACGGUCAUAGGCCAUGGAAACUAGGAGCACCAUUUCGCUGCCAGUGAAGAAAUGAACUAAGAAAAUCUGGGCCAGGCAGGCAUCAAAAGAGAUAGUCUUGCGCUCAACCAGAAAGUCUGUAAUCAUUUUAAGGGUA [A62U A95G]  2.47
